# Test system: GST-NR2F6 fusion protein, wild-type, full-length (purified recombinant)
# Sequence (chain, as listed by the source): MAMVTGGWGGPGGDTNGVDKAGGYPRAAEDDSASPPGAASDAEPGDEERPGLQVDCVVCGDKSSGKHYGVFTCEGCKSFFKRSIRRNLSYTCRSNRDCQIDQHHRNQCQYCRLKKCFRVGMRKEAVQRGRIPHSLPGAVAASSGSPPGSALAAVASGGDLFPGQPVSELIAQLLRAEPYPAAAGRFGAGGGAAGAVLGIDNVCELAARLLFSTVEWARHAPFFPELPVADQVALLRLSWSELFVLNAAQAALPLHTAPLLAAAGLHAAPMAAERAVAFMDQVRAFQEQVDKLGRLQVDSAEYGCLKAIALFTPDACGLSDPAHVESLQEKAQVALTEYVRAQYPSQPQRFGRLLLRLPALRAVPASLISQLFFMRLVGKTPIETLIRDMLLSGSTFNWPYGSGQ
protein,measurement,value
"recombinant PKCzeta (enzyme, UniProt Q05513 1-592, looked up, species assumed) Protein kinase C zeta type: MPSRTGPKMEGSGGRVRLKAHYGGDIFITSVDAATTFEELCEEVRDMCRLHQQHPLTLKWVDSEGDPCTVSSQMELEEAFRLARQCRDEGLIIHVFPSTPEQPGLPCPGEDKSIYRRGARRWRKLYRANGHLFQAKRFNRRAYCGQCSERIWGLARQGYRCINCKLLVHKRCHGLVPLTCRKHMDSVMPSQEPPVDDKNEDADLPSEETDGIAYISSSRKHDSIKDDSEDLKPVIDGMDGIKISQGLGLQDFDLIRVIGRGSYAKVLLVRLKKNDQIYAMKVVKKELVHDDEDIDWVQTEKHVFEQASSNPFLVGLHSCFQTTSRLFLVIEYVNGGDLMFHMQRQRKLPEEHARFYAAEICIALNFLHERGIIYRDLKLDNVLLDADGHIKLTDYGMCKEGLGPGDTTSTFCGTPNYIAPEILRGEEYGFSVDWWALGVLMFEMMAGRSPFDIITDNPDMNTEDYLFQVILEKPIRIPRFLSVKASHVLKGFLNKDPKERLGCRPQTGFSDIKSHAFFRSIDWDLLEKKQALPPFQPQITDDYGLDNFDTQFTSEPVQLTPDDEDAIKRIDQSEFEGFEYINPLLLSTEESV",in vitro protein kinase assay (32P incorporation into GST-NR2F6),(but not PKCzeta or PKA) were able to phosphorylate recombinant NR2F6 in vitro

# Source: patent publication US20110239311
